Source: patent publication US20150056189A1 (Daiichi Sankyo, published 2015)

T1: human Siglec-15 V-set domain (human, UniProt Q6ZMC9 39-165)
T1 construct: range 39-165; Purified to a single 14 kDa band; Used as the analyte in SPR; also called hSiglec-15 (39-165) V-set domain; human Siglec-15 protein
T1 sequence (looked up): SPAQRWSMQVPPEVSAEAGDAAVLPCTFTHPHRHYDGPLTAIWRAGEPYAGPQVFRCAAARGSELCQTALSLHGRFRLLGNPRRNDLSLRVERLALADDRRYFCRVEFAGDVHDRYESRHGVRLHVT


Legend:
[1] = biological target: T1, human Siglec-15 V-set domain; test: SPR, Biacore T200; antibody captured via anti-human IgG on CM5 chip, antigen as analyte, 1:1 binding model
Description: (§1) As a running buffer, HBS-EP+ (10 mM HEPES pH 7.4, 0.15 M NaCl, 3 mM EDTA, 0.05% surfactant P20) was used. On the chip having the antibody bound thereto, a dilution series of an antigen solution (0.003 to 7 nM) was added at a flow rate of 90 μL/min for 233 seconds, and subsequently, the dissociation phase was monitored for 2000 to 3600 seconds. As a regeneration solution, 3 M MgCl₂ was added at a flow rate of 10 μL/min for 30 seconds. In the analysis of data, a 1:1 binding model of analysis software (Biacore T200 Evaluation software, version 1.0) was used, and an association rate constant (kon), a dissociation rate constant (koff), and a dissociation constant (KD; KD=koff/kon) were calculated.

[2] = biological target: T1, human Siglec-15 V-set domain; test: SPR, Biacore T200; ratio of KD values against K3-1115
Description: as §1

Kd [1] | fold enhancement of affinity compared with K3-1115 [2] | Binder
0.26 nM |  | K3-1115 antibody (antibody, human IgG2, kappa, V domains shown, Humanized form of the rat antibody #32A1; Full-length IgG made in FreeStyle 293F cells; Used as the control antibody; In SPR it was captured through an anti-human IgG antibody; also called h#32A1-H1-1/L2-15) VH: EVQLVESGGGLVQPGGSLRLSCAASGFNFNDYFMNWVRQAPGKGLEWVAQIRNKIYTYATFYAASVKGRFTISRDNAKNSLYLQMNSLRAEDTAVYYCARSLTGGDYFDYWGQGTLVTVSS VL: EILMTQSPATLSLSPGERATLSCRASQSVTISGYSFIHWYQQKPGQAPRLLIYRASNLASGIPARFSGSGSGTDFTLTISSLEPEDFALYYCQQSRKSPWTFGQGTKVEIKR
0.0041 nM | ~60 times | K3-1115/T103E antibody (antibody, human IgG2, kappa, V domains shown, Full-length IgG made in FreeStyle 293F cells) VH: EVQLVESGGGLVQPGGSLRLSCAASGFNFNDYFMNWVRQAPGKGLEWVAQIRNKIYTYATFYAASVKGRFTISRDNAKNSLYLQMNSLRAEDTAVYYCARSLEGGDYFDYWGQGTLVTVSS VL: EILMTQSPATLSLSPGERATLSCRASQSVTISGYSFIHWYQQKPGQAPRLLIYRASNLASGIPARFSGSGSGTDFTLTISSLEPEDFALYYCQQSRKSPWTFGQGTKVEIKR
